Experimental data: PMC2853111
Where two headings read alike, the source gives them in different places.

Columns and labels:
[1] = molecular target: T1, estrogen receptor alpha (rERα, NR3A1) (UniProt P03372 1-595); assay: EMSA
[2] = molecular target: T1, estrogen receptor alpha (rERα, NR3A1); assay: EMSA; remark: listed apart in the source

T1 sequence (P03372 whole entry): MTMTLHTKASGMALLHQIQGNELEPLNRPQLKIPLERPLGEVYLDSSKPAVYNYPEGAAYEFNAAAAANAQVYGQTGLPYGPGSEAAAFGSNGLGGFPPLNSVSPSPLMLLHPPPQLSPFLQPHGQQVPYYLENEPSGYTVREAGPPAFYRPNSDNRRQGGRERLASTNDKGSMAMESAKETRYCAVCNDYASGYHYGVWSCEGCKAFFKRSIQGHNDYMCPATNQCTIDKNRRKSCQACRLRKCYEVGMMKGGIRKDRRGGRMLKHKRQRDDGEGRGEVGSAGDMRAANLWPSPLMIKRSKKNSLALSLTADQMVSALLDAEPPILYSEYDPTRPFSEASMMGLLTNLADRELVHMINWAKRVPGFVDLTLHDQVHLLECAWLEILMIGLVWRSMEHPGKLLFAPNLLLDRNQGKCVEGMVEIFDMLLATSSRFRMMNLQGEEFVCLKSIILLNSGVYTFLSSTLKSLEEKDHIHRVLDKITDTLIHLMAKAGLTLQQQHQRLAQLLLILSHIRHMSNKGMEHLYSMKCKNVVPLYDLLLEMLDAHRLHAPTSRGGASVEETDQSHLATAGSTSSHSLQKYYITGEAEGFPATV

B1: D66 ERE probe (5' ERE, MIRb) (dsDNA)
DNA 1: CACCCAGGTCAGTCTGACATCTAAG
DNA 2: CTTAGATGTCAGACTGACCTGGGTG
B1: binds [1].

B2: consensus ERE probe (ERE-EMSA) (dsDNA)
DNA 1: GGATCTAGGTCACTGTGACCCCGGATC
DNA 2: GATCCGGGGTCACAGTGACCTAGATCC
B2: binds [2].

B3: B68 ERE probe (3' ERE, MIRb) (dsDNA)
DNA 1: TTTCTGGGTCACACCGACCTGAGCT
DNA 2: AGCTCAGGTCGGTGTGACCCAGAAA
B3: binds [1].
